Data set [1] concerns T1, phiCDKH01 XRE family repressor (XRE-His) (Clostridioides difficile phage phiCDKH01 (host strain CD34/Sr)), UPI000235AC6A.
T1 sequence: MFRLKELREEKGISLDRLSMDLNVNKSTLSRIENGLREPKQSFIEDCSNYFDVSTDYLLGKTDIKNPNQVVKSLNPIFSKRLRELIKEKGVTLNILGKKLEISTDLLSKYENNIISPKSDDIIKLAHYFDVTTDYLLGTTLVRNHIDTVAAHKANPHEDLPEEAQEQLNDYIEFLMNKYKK
Description: EMSA. The conditions noted are these: 50 mM Tris-HCl pH 7.5, 50 mM NaCl, 200 mM KCl, 50 mM MgCl2, 5 mM EDTA, 5 mM DTT, 0.25 mg/mL BSA, 15 min, room temperature, 0.1 pmol DNA, 0-200 ng protein.

In data set [2] the target is T2, phiCDKH01 XRE family repressor (XRE-His) (Clostridioides difficile phage …, UniProt UPI000235AC6A 1-181).
T2 sequence: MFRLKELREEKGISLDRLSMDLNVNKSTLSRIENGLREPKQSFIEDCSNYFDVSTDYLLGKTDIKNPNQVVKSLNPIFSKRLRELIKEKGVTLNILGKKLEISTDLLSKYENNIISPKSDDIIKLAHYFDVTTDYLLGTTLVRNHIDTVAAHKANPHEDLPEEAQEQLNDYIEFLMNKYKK
Nature of the data set: EMSA; 50 mM Tris-HCl pH 7.5, 50 mM NaCl, 200 mM KCl, 50 mM MgCl2, 5 mM EDTA, 5 mM DTT, 0.25 mg/mL BSA, 15 min, room temperature; 0.1 pmol DNA, 0-200 ng protein; 5% TBE gel. The conditions noted are these: protein: recombinant; tag encoded at 3' end by primer S4); chain copies: 2; blunt.

As to “CATTATAGCAACTTTTATTTACATTATAGCAACTTTTTTTGTTATTACAATTAAAATTGCCAAAAAAGCAACAAAAATATTGACTTTTAACATTTTTGTTGCTATTATATAA (double strand) [S2]”, in data set [1], the binding result is on record as “binds”.

On to “GTTGCTATAATGTAAATAAAAGTTGCTATAATGAAAACTACAATAAAGGATGATTTTATATGTTTAGATTAAAAGAACTGAGAGAAG (double strand) [S1]”, for which the binding result in data set [1] is listed as “binds”.

Turning to “GCAACTTTTTTTGTTATTACAATTAAAATTGCCAAAAAAGCAACAAAAATATTGACTTTTAACATTTTTGTTGCTATTATATAAACAAGAACTTGCTTATATAGCAAAAAGTTAGAGGGTGA (double strand) [S3 (Methods text says S4)]”, in data set [1], the binding entry was “binds”.

B1: BIND (minimal XRE-binding fragment) (dsDNA)
DNA 1: TTACAATTAAAATTGCCAAAAAAGCAACAA
DNA 2: TTGTTGCTTTTTTGGCAATTTTAATTGTAA
On to B1, for which the binding result in data set [2] was “binds”.

The values above are taken from article PMC11172241, “Insight into the Mechanism of Lysogeny Control of phiCDKH01 Bacteriophage Infecting Clinical Isolate of Clostridioides difficile”.
